Results: publication PMC3303177

How the values were obtained:
His-GAS41 = His-GAS41 (UniProt O95619 1-227); test: EMSA
GST-AP-2β = GST-AP-2β (UniProt Q92481 1-460); test: EMSA
GST-AP-2β, sequence (Q92481 whole entry): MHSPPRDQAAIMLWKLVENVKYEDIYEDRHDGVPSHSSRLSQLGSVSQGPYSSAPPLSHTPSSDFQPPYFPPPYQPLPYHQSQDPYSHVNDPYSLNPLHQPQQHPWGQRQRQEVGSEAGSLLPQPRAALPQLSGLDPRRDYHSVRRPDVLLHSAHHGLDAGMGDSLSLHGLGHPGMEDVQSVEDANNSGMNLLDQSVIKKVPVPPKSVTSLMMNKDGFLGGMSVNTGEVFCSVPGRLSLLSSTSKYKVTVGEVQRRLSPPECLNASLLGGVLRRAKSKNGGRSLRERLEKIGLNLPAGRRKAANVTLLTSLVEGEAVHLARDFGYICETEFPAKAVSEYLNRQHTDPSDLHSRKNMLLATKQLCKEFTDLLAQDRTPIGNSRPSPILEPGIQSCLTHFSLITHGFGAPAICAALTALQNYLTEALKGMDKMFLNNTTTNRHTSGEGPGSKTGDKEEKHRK

His-GAS41, sequence (O95619 whole entry): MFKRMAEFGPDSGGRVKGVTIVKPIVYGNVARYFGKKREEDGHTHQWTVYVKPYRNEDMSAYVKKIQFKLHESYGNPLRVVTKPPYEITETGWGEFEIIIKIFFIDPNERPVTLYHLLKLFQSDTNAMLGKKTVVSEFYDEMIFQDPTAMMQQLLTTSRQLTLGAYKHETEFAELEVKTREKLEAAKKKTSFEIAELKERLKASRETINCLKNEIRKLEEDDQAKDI

B1: hMT AP-2 consensus probe (dsDNA)
DNA 1: TGACCGCCCGCGGCCCGTG
DNA 2: CACGGGCCGCGGGCGCTCA
binding result (His-GAS41): no binding
binding result (GST-AP-2β): binds
